Experimental data: the supplement of paper PMC10567573
± gives the standard deviation.

Experiment: protein stability index of a GFP-peptide fusion (GPS, HEK-293T) (PSI 1-6); higher = more stable
Conditions: c terminus: a fixed tail appended
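Further: 24-mer peptide tiles fused after GFP, lentivirally expressed, FACS-sorted into six equal bins by GFP/DsRed ratio, decoded by Illumina sequencing, PSI is the read-weighted mean bin number.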

Sequence | protein stability index (treatment: DMSO) | protein stability index (treatment: MLN4924 1 uM, 8 h)
EMTTTDDLDFKHHNYKEMRQLMKV [CPXM2] | 3.75 ± 0.099 | 3.53 ± 0.18
ENIAWVKSYNICFELEDSNEIFTQ [PDS5B] | 2.46 ± 0.61 | 2.53 ± 0.28
ENVDEASAAPGHPQDGSYPRQADH [KCNA1] | 5.55 ± 0.25 | 5.47 ± 0.26
ENVSVEMLLRKFAESKGTGREKPG [FCHO1] | 3.9 ± 0.086 | 4.23 ± 0.26
EPNRLETGEAGEELDLRLRLAQPS [RTN2] | 5.17 ± 0.13 | 5.28 ± 0.17
EQEHAAIQDKLFQVAKREREAATK [CHCHD6] | 5.38 ± 0.36 | 5.48 ± 0.16
EQERRERREQAAAAPFPSPAPASP [TFE3] | 5.52 ± 0.18 | 5.48 ± 0.14
EQGAIPRLVQLLVRAHQDTQRRTS [CTNNB1] | 3.18 ± 0.19 | 3.26 ± 0.22
EQQRKLETYLQNHFAEEERSKYDY [TENT5C] | 4.35 ± 0.16 | 4.47 ± 0.099
EQTFSPAKSLSFRKGELVTASKAI [ADD1] | 3.99 ± 0.17 | 4.14 ± 0.28
EQVNFCESSNDFGPYEGGGPVAGL [ZBTB22] | 4.3 ± 0.16 | 4.32 ± 0.25
ERRGGLPPLPLHPGGDQGGPPVGP [WAS] | 4.95 ± 0.4 | 5.22 ± 0.2
ESETRKAAKRMRLEIYQSSQDEPI [NOL4L] | 4.58 ± 0.071 | 4.65 ± 0.24
ETAIADAEQRGDNALKDARAKLDE [KRT71] | 5.57 ± 0.21 | 5.41 ± 0.54
ETIEGAPPLWAASAAGHLKVVQSL [FEM1C] | 3.11 ± 0.2 | 3.04 ± 0.46
EVENQFILRLPLEHACTVRNLARS [TAF7L] | 2.66 ± 0.12 | 2.51 ± 0.24
EVGSMKIQSGAWVCYQYPGYRGYQ [CRYBA1] | 2.08 ± 0.24 | 2.32 ± 0.11
EYMETGSLEKLLASEPLPWDLRFR [RIPK4] | 2.76 ± 0.3 | 3.27 ± 0.6
EYQCQNLYQLEGNNQITCRNGQWS [CFHR2] | 3.09 ± 0.14 | 3.03 ± 0.21
FAQPMMRPPFGAAAVPGTQLSPSP [SNAP91] | 3.43 ± 0.31 | 3.71 ± 0.35
FCASTRLPPTPLLLFPEEEATNGR [AUP1] | 3.03 ± 0.59 | 3.79 ± 0.31
FDHLQNRLIATKNPEEIRGGGLLK [TENT5C] | 3.73 ± 0.26 | 4.09 ± 0.36
FDKEWVAKQTKRMLDMKVNPIQGL [COX4I1] | 2.46 ± 0.44 | 2.78 ± 0.41

Sequence | protein stability index (treatment: DMSO) | protein stability index (treatment: MLN4924 1 uM, 8 h)
FDKLALRFHGRLLFLKDVLGDEIC [KCTD13] | 2.48 ± 0.41 | 2.34 ± 0.18
FDNPQVRFFLGDLCSRQDLYPALK [NSDHL] | 2.35 ± 0.29 | 2.25 ± 0.26
FDSDWYTSRNLIGGADIIVIKYNV [RHOBTB3] | 2.73 ± 0.52 | 3.12 ± 0.4
FDVFSPKQDLVPGSPDDSHPKDGP [DLC1] | 5.43 ± 0.36 | 5.43 ± 0.33
FFAFEHSEEYQQAQHKFLVAVESM [TCF25] | 3.59 ± 0.35 | 3.56 ± 0.4
FFIRTSDSFDKFDFCEPSFVTGNC [PCMTD2] | 2.52 ± 0.33 | 2.42 ± 0.26
FGRYLEHLEVKFMNPYNAVLTKKF [FBXO39] | 2.24 ± 0.45 | 2.04 ± 0.16
FKAEVDPLSDKGTTPLQLAIIRER [ASB7] | 3.82 ± 0.34 | 3.85 ± 0.25
FKNRLVNIMPYESTRVCLQPIRGV [PTPRD] | 2.35 ± 0.35 | 2.33 ± 0.47
FLFVLGGEDQWNPNGKHSTNFVSR [KLHL14] | 2.11 ± 0.15 | 2.27 ± 0.41
FLLAFGLMIIVCIDQWKNKIWPEI [RETREG3] | 2.94 ± 0.4 | 3.09 ± 0.35
FLLCARSLLRGFLLQNEFVGFMWR [MCOLN1] | 2.55 ± 0.34 | 2.39 ± 0.79
FLMLAVSLTVPLLGAMMLLESPID [APMAP] | 3.52 ± 0.26 | 3.64 ± 0.37
FLPTALLCAYGFFASLRPSEPFLT [SLC19A2] | 3.25 ± 0.56 | 3.26 ± 0.59
FLSENATVAAETRAVIAWMEKIPF [CPXM2] | 2.04 ± 0.12 | 2.28 ± 0.5
FLSLHRAHLGEEAHKCLECGKCFS [ZNF263] | 3.06 ± 0.28 | 3.44 ± 0.37
FLVVREPPRGAVERHSDLPPLNPT [SPNS1] | 2.85 ± 0.39 | 3.09 ± 0.34
FPKKLAFAYLEDLHSEFDEQHGKK [SEC22B] | 2.89 ± 0.28 | 3.26 ± 0.38
FQFASIDVAGNLDYKALSYVITHG [MYL5] | 2.51 ± 0.47 | 2.29 ± 0.31
FRFTYYTILDIFRFALRFIRPDPR [FAF2] | 2.56 ± 0.067 | 2.47 ± 0.33
FSAEFLKVFIPSLFLSHVLALGLG [BNIP3L] | 3.57 ± 0.21 | 2.9 ± 0.93
FSIVSVAAHLALLLLCGTISLRVY [RTN2] | 3.35 ± 0.76 | 3.16 ± 0.8
FVDILESDLKDDDAVPPGMESLIS [CDC25B] | 3.55 ± 0.64 | 3.94 ± 0.43

Sequence | protein stability index (treatment: DMSO) | protein stability index (treatment: MLN4924 1 uM, 8 h)
FVELIGPKLREETAHMLGVRELRI [CABP4] | 2.69 ± 0.88 | 2.14 ± 0.88
FVLGKGRGAAAAGGPQRIPAHRFV [BTBD1] | 2.3 ± 0.25 | 2.71 ± 0.31
FWLGNEALHSLTQAGDYSMRVDLR [TNXB] | 2.19 ± 0.71 | 2.44 ± 0.14
GAGHFEVVKLLVSHGANVNHTTVT [FEM1B] | 2.23 ± 0.51 | 2.26 ± 0.2
GARDGIRYLEAEFKKGNRYIRCQK [SMG5] | 3.14 ± 0.3 | 3.57 ± 0.32
GAREEDLDAVEAQIGCKLPDDYRC [FBXO3] | 5.25 ± 0.073 | 5.15 ± 0.12
GAVIEVFGHRFIILDTDEYVLKYM [EFHC1] | 2.5 ± 0.56 | 2.27 ± 0.67
GCKGFFRRSVRKNHMYSCRFSRQC [HNF4A] | 2.15 ± 0.18 | 2.27 ± 0.36
GDELYEQSDEEQDSVKVALLETNP [CLPTM1] | 5.37 ± 0.19 | 5.44 ± 0.17
GDLFESTPEVAAAPKPDAAPSIDL [SNAP91] | 5.3 ± 0.29 | 5.27 ± 0.16
GDQDPLSKIPFKILSGHEHAVSTC [WDR88] | 3.31 ± 0.23 | 3.78 ± 0.16
GDVMHLSQSPSVSQLSVLSLSGVM [PRAME] | 2.43 ± 0.42 | 2.28 ± 0.31
GDWLLTANGSEIHKHVHFSSSFTS [SLC22A15] | 2.59 ± 0.25 | 2.49 ± 0.36
GEEDFSLSATIGSILRELDTSMDG [SERTAD3] | 3.75 ± 0.2 | 3.93 ± 0.44
GERPYKCSECGESFSRSSRLMSHQ [ZNF263] | 3.25 ± 0.51 | 3.53 ± 0.83
GEYVVTAKAEGFTASTKNCMVGYD [CPXM2] | 4.26 ± 0.28 | 3.65 ± 0.054
GFDTDGLSSAVWPGGETEALTRLE [CRY1] | 4.54 ± 0.73 | 4.76 ± 0.29
GFWEEERPFWEEEKTFWKEEKSFW [CCDC70] | 2.85 ± 0.35 | 3.274 ± 0.027
GGDGSGCSKQSGSFRKFRYGYNNV [ADAMTS4] | 3.59 ± 0.3 | 3.389 ± 0.008
GGFQMHYEKTPFDQLAFIEELFSL [EID1] | 2.12 ± 0.9 | 
GGGGCDRYEPLPPSLPAAGEQDCC [KCNA3] | 5.02 ± 0.33 | 5.06 ± 0.29
GGHSRERADEPQWSLYPSDSQVSE [CHGB] | 5.28 ± 0.27 | 5.24 ± 0.34
GGLSPVTNLTVTMDQLQGLGSDYE [CDC25A] | 4.24 ± 0.38 | 4.48 ± 0.18

Sequence | protein stability index (treatment: DMSO) | protein stability index (treatment: MLN4924 1 uM, 8 h)
GGMSHLHTFRATFQEPLYPALRLW [TRIM14] | 2.21 ± 0.22 | 2.13 ± 0.091
GHGMTPLKVAAESCKADVVELLLS [FEM1B] | 2.29 ± 0.21 | 2.47 ± 0.34
GHHERSIMTDLYYLSQTDGAGDWR [FUT8] | 3.2 ± 0.35 | 3.12 ± 0.24
GHKEEEDGEGAGPGEQGGGKLVLS [ESRRA] | 5.3 ± 0.27 | 5.42 ± 0.4
GHPYRGASQFLASASSSTTCCEST [IRX6] | 4.24 ± 0.19 | 4.3 ± 0.22
GIKSKEAEEYRLKEHYLTFEKSRY [PSD2] | 3.82 ± 0.093 | 3.94 ± 0.31
GIVEAMVVCRQLGLGFASNAFQET [LOXL2] |  | 2.393 ± 0.002
GKLKWNLAAVTPHDFIEHILRKLP [CCND2] | 2.61 ± 0.38 | 2.16 ± 0.18
GKSLLLMTRNDVLTGLQLKLGPAL [SAMD13] | 2.27 ± 0.4 | 2.26 ± 0.28
GLPGAEGVEPAPWAQLEAPARLLL [FANCE] | 3.33 ± 0.45 | 3.3 ± 0.05
GLSGGALSPLRAASDPLLSSVSPA [TFE3] | 3.91 ± 0.32 | 3.91 ± 0.099
GLTKKRTKVQKKSLLLKKPLRVDL [NOP53] | 3.25 ± 0.13 | 3.42 ± 0.35
GMPPAGTGMPMMPQQPVMFAQPMM [SNAP91] | 3.03 ± 0.17 | 3.2 ± 0.34
GNNLLVFGGTGIPFGESNGNGVHV [KLHDC10] | 2.66 ± 0.36 | 2.71 ± 0.41
GPPSRGGHMDDGGYSMNFNMSSSR [RBMX] | 4.25 ± 0.32 | 3.96 ± 0.34
GQGPKPEADSQEQGHPQTGCECED [GAGE1] | 5.64 ± 0.15 | 5.4 ± 0.31
GQPLRPLVPDASKQRLMENTEDWR [PDLIM7] | 4.54 ± 0.24 | 4.72 ± 0.18
GQTPLAVSISISGSSRPCLDFLQE [ASB7] | 2.83 ± 0.93 | 2.24 ± 0.37
GQYATTKGISQTNLITTVTPEKKA [EPB41L3] | 5.07 ± 0.2 | 5.11 ± 0.17
GRCELARVLHDFGLDGYRGYSLAD [SPACA3] | 2.62 ± 0.13 | 2.35 ± 0.32
GREKPGPLDFEAYSAAALQEAMKR [FCHO1] | 4.21 ± 0.27 | 4.26 ± 0.18
